Experimental data taken from patent US9187525B2, “Methods of treating ophthalmic diseases using NPR-B agonists” (Shire Orphan Therapies GmbH, dated 2015).
Numbered stars: 1 amine (or outer) side, 2 acyl side, 3 side chain; on linkers, the order of the positions; unused ones are H or OH. Square brackets hold non-standard residues; d marks the D form. Ends that are not written are not given here. * marks the point of attachment. Eal = rac-imidazolidine-2-carboxylic acid, O=C(C1N([*:1])CCN1[*:3])[*:2]; 6182 = 5-Butyl-2H-pyrazole-3-carboxylic acid, CCCCc1cc(C(=O)*)[nH]n1; Pro(trans-4-NH2) = O=C([C@@H]1C[C@@H](N[*:3])CN1[*:1])[*:2]; Pro(trans-4-guanidino) = N=C(N)N[C@H]1CN[C@H](C(=O)O)C1; Sni = (S)-nipecotic acid, O=C([C@H]1CCCN([*:1])C1)[*:2]; Azetidine3carboxylic = O=C(C1CN([*:1])C1)[*:2]; Hyp = O=C(O)[C@@H]1C[C@@H](O)CN1; NMeF = CN[C@@H](Cc1ccccc1)C(=O)O; NMeL = CN[C@@H](CC(C)C)C(=O)O; AR‑201‑48 = not defined here; AR‑201‑49 = not defined here; AR‑201‑54 = not defined here; Tle = CC(C)(C)[C@H](N)C(=O)O; dNle = CCCC[C@@H](N)C(=O)O; dOrn = NCCC[C@@H](N)C(=O)O; SH‑158 = not defined here; Octanoyl = CCCCCCCC(=O)*; Ac5c = NC1(C(=O)O)CCCC1; dAze = O=C(O)[C@H]1CCN1; Hexanoyl = CCCCCC(=O)*; Occ = octanoic acid; Sar = CNCC(=O)O

T1: natriuretic peptide receptor-B (human)
T1 chain: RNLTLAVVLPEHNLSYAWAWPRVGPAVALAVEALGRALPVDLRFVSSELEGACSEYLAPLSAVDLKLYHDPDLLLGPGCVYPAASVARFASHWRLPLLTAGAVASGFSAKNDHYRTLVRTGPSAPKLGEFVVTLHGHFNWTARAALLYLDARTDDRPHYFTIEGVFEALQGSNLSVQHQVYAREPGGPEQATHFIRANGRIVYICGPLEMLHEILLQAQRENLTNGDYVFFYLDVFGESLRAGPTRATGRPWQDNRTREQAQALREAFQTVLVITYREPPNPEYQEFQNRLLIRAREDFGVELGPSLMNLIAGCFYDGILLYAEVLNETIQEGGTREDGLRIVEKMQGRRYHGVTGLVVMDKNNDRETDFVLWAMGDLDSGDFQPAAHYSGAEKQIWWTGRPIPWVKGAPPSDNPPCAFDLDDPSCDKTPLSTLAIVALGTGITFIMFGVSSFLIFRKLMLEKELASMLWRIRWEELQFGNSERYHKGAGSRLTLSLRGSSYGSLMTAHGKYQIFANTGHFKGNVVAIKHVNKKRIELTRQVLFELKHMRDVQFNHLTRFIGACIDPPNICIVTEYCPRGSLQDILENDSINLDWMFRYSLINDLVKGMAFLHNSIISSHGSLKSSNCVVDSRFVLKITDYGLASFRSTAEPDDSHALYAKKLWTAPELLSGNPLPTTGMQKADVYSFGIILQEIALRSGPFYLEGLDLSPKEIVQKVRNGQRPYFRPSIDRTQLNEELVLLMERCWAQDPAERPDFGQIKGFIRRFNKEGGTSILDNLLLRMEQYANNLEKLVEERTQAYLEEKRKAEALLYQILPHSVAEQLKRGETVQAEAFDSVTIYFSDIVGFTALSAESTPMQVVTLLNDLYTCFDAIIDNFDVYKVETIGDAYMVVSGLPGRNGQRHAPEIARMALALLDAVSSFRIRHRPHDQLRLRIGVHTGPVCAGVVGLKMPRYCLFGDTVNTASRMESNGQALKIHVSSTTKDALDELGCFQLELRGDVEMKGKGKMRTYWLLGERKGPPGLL

B1: JAL-1316 (peptide)
peptide: [AR‑201‑54]F[dR]L[Hyp][NMeL]DRI-NH2
modifications: reading uncertain; also: printed as (AR-201-54)-Phe-arg-Leu-Hyp-Nml-Asp-Arg-Ile-NH2
B2: JAL-1292 (peptide)
peptide: [AR‑201‑49]F[dR]L[Hyp][NMeL]DRI-NH2
modifications: reading uncertain; also: printed as (AR-201-49)-Phe-arg-Leu-Hyp-Nml-Asp-Arg-Ile-NH2
B3: JAL-1294 (peptide)
peptide: [AR‑201‑49]F[dL]L[Hyp][NMeL]DRI-NH2
modifications: reading uncertain; also: printed as (AR-201-49)-Phe-leu-Leu-Hyp-Nml-Asp-Arg-Ile-NH2
B4: JAL-1284 (peptide)
peptide: Octanoyl-[dA]F[dR]L[Hyp][SH‑158]DRI-NH2
modifications: reading uncertain; also: printed as Occ-ala-Phe-arg-Leu-Hyp-(SH-158)-Asp-Arg-Ile-NH2
B5: JAL-1283 (peptide)
peptide: Octanoyl-[dA]F[dL]L[Hyp][SH‑158]DRI-NH2
modifications: reading uncertain; also: printed as Occ-ala-Phe-leu-Leu-Hyp-(SH-158)-Asp-Arg-Ile-NH2

Molecular target: T1, natriuretic peptide receptor-B
Experiment: cell-based or functional assay

Row | EC50 group, cGMP in GTM-3 cells [µM] | Binder
1 | ≤ 5 | Octanoyl-[dA]FGL[Pro(trans-4-guanidino)]LDRI-NH2 [JAL-1270]
2 | ≤ 5 | Octanoyl-[dA]F[dL]L[Eal][NMeL]DRI-NH2 [JAL-1281_01]
3 | ≤ 1 | Octanoyl-[Sni]F[dL]L[Hyp][NMeL]DRI-NH2 [JAL-1302]
4 | ≤ 5 | Octanoyl-[Sni]F[dNle]L[Pro(trans-4-NH2)][NMeL]DRI-NH2 [JAL-1319]
5 | ≤ 5 | Octanoyl-[dA]F[dR]L[Pro(trans-4-guanidino)]LDRI-NH2 [JAL-1271]
6 | ≤ 5 | B1
7 | ≤ 5 | Octanoyl-[dA]F[dL]L[Pro(trans-4-guanidino)]LDRI-NH2 [JAL-1272]
8 | ≤ 5 | B2
9 | ≤ 1 | XAFXLXXDRI (Occ-ala-Phe-orn(Me2)-Leu-Hyp-Nml-Asp-Arg-Ile-NH2) [JAL-1288]
10 | ≤ 1 | B3
11 | ≤ 5 | Octanoyl-[dAze]F[dR]L[Hyp][NMeL]DRI-NH2 [JAL-1274]
12 | ≤ 15 | Octanoyl-[dA]FGL[Eal][NMeL]DRI-NH2 [JAL-1282]
13 | ≤ 1 | Octanoyl-[dA]F[dR]L[Hyp][NMeL]DR[Tle]-NH2 [JAL-1305]
14 | ≤ 1 | Octanoyl-[Sni]F[dR]L[Hyp][NMeL]DRI-NH2 [JAL-1297]
15 | ≤ 1 | B4
16 | ≤ 15 | XAFRXXXDRI (Occ-ala-Phe-arg-Dap(Me2)-Hyp-Nml-Asp-Arg-Ile-NH2) [JAL-1315]
17 | ≤ 5 | Octanoyl-[dA][NMeF][dOrn]L[Hyp][NMeL]DRI-NH2 [JAL-1269]
18 | ≤ 5 | XAFRLXXDRI (Occ-ala-Phe-arg-Leu-Hyp-Dap(Me2)-Asp-Arg-Ile-NH2) [JAL-1314]

Row | EC50 group, cGMP in GTM-3 cells [µM] | Binder
19 | ≤ 1 | B5
20 | ≤ 1 | Octanoyl-[dA]F[dL]L[Pro(trans-4-NH2)][NMeL]DRI-NH2 [JAL-1296]
21 | ≤ 15 | [AR‑201‑48][dR]L[Hyp][NMeL]DRI-NH2 (reading uncertain; also: printed as (AR-201-48)-arg-Leu-Hyp-Nml-Asp-Arg-Ile-) [JAL-1291]
22 | ≤ 1 | Octanoyl-[Sni]F[dOrn]L[Pro(trans-4-NH2)][NMeL]DRI-NH2 [JAL-1318]
23 | ≤ 15 | [AR‑201‑48][dL]L[Hyp][NMeL]DRI-NH2 (reading uncertain; also: printed as (AR-201-48)-leu-Leu-Hyp-Nml-Asp-Arg-Ile-) [JAL-1293]
24 | ≤ 1 | Octanoyl-[Sni]F[dL]L[Pro(trans-4-NH2)][NMeL]DRI-NH2 [JAL-1295]
25 | ≤ 15 | Hexanoyl-A[dA]FGLKLDRI-NH2 [JAL-0632]
26 | ≤ 1 | [Occ][Sni]FGL[Pro(trans-4-NH2)][NMeL]DRI-NH2 [JAL-1320]
27 | ≤ 5 | Octanoyl-[Sar]F[dR]L[Hyp][NMeL]DRI-NH2 [JAL-1273]
28 | ≤ 15 | Hexanoyl-P[dA]FGLKLDRI-NH2 [JAL-0634]
29 | ≤ 1 | Octanoyl-[Sni]F[dR]L[Pro(trans-4-NH2)][NMeL]DRI-NH2 [JAL-1317]
30 | ≤ 5 | 6182-[dA]F[dR]L[Hyp][NMeL]DRI-NH2 [JAL-1298]
31 | ≤ 15 | Hexanoyl-[dA][dA]FGLKLDRI-NH2 [JAL-0635]
32 | ≤ 1 | XXFXLXXDRI (Occ-Sni-Phe-orn(Me2)-Leu-Hyp-Nml-Asp-Arg-Ile-NH2) [JAL-1289]
33 | ≤ 5 | Octanoyl-[Azetidine3carboxylic]F[dR]L[Hyp][NMeL]DRI-NH2 [JAL-1275]
34 | ≤ 5 | Octanoyl-[dA]F[dR]L[Hyp][NMeL]DR[Ac5c]-NH2 [JAL-1306]
35 | ≤ 1 | XXFXLXXDRI (Occ-Sni-Phe-dap(Me2)-Leu-Hyp-Nml-Asp-Arg-Ile-NH2) [JAL-1287]
36 | ≤ 15 | Hexanoyl-S[dA]FGLKLDRI-NH2 [JAL-0633]
